What was measured:
Experiment in all cases: cell-based or functional assay
[1] = target: T1, F protein of RSV A2 (on the virus in the neutralization assay) (respiratory syncytial virus, A2 strain, UniProt P03420 26-574)
[2] = target: T1, F protein of RSV A2 (on the virus in …); remark: listed apart in the source
[3] = target: F protein of RSV type B strain 18537 (on the virus in the neutralization assay) (respiratory syncytial virus type B, …, UniProt P13843 26-574)

Binder | IC50 of each RSV neutralizing antibody, RSV A2 [1] | neutralizing ability against RSV A2, relative to 1129 [2] | neutralizing ability against 18537, relative to 1129 [3]
monoclonal antibody 6B2 (antibody, V domains shown) VH: EVQLQQSRPELVKPGASVKISCKASGYSFTAYFMNWVKQSHGKSLEWIGRINPYIGDTFYNQKFKGKATLTVDKSSNTAHMELLSLTSEDSAVYYCGRSEYGNYYFDYWGQGTTLTVSQ VL: ENVLTQSPAIMSASLGEKVTMSCRASSSVNYMYWYQQKSDASPKLWIYYTSNLAPGVPARFSGSGSGNSYSLTISSMEGEDAATYYCQQFTSSPLTFGAGTKLELK | 0.0949 µg/mL | – | –
monoclonal antibody 7G5 (antibody, V domains shown) VH: QVQLKESGPGLVAPSQSLSITCTVSGFSLSSYGVHWIRQPPGKGLEWLGVIWAGGSTNYNSALMSRLSISEDNSKSQVFLKMNSLQTDDTAVYYCARKGLVWPAMDYWGQGTSVTVSQ VL: DIQMTQTTSSLSASLGDRVTISCRASQDISHYLNWYQQKPDGTVKLLIYYTSRLHSGVPSRFSGSGSGTDYSLTIYNLEQEDIATYFCQQGNTLPWTFGGGTKLEIK | 0.0316 µg/mL | – | –
monoclonal antibody 5B11 (antibody, V domains shown) VH: QIQLVQSGPELKKPGETVKISCKASGYTFTDYSMHWLKQAPGKGLKWMGWITTETGEPTYADDFKGRFAFSLETSASTAYLQINNLKNEDTGIYFCARYYYGPFYWGQGTLVTVST VL: DIQMTQSPASLSASVGETVTITCRSSGNIHNFLTWYQQKQGKSPQFLVYNAKTLADGVSSRFSGSGSGTQFSLKINSLQPEDFGIYYCQHFWTTPYTFGGGTKLEIK | 0.0074 µg/mL | 50 times | ~10 times

— US20240409621A1 (XIAMEN UNIVERSITY, published 2024)
